US20170296650A1 (Novartis, published 2017)
Numbering of substitutions follows the chain as printed.

B1: 2C12 (antibody, V domains shown)
VH: QITLRESGPTLVKPTQTLTLTCTFSGFSLNTNGVGVGWIRQPPGKALEWLALIYWNGNEGYSPSLKSRLTITKDTSKNQVVLTMTNMDPVDTATYYCVHWPQGLTTVTRLAFDIWGQGTMVTVSS
VL: QSALTQPRSVSGSPGQSVTISCTGTTSDVGRYNFVSWYQQHPGKAPKLLMYDVSQRPSGVPSRFSGSKSGNTASLTISGLQAEDEAVFYCCSYAGGNFFSYVFGTGTKVTVL
notes: human IgG; also called 2C12-biotin
B2: 5F1 (antibody, V domains shown)
VH: AVQLVESGGGLAQPGRSLRLSCKVSGFTFSSYEMNWVRQAPGKGLEWIAYIDFTGSTIYYADSVKGRFTISRDTARNSLYLQMNKLRVEDTAVYYCVRDAGRWGTSWYYFDYWGQGTLVTVSS
VL: QSVLTQPPSVSGAPGQRVTISCTGLSSNIGAGYDIHWYQQIPGKAPKLLIYGNNNRPSGVPDRFSGSKSGTSVSLAITGLQAEDEADYYCQSYDSSLNGWVFGGGTRLTVL
notes: human IgG; also called 5F1-biotin
B3: 10C6 (antibody, V domains shown)
VH: B2 VH with T28S, S31N, Y32F, A61S
VL: B2 VL
notes: human IgG; also called 10C6-biotin; 1006
B4: 2B11 (antibody, V domains shown)
VH: B2 VH with Q3R, K23Q, S30G, D73N, K85S, L118R, S123P
VL: B2 VL with L25I, I50V, A82V, S95N
notes: human IgG; also called 2B11-biotin
B5: 6B4 (antibody, V domains shown)
VH: QVQLVESGGGVVQPGRSLRLSCAASGFRFNEFNMHWVRQAPGKGLEWVAVISIDGRHKYNADSVEGRFTISRDNSRNTLYLQMNSLRVEDTALYYCVTDGKAVDGFSGILEFWGQGTPVTVST
VL: EIVLTQSPATLSLSPGERATLSCWASQSVGGYLAWYQQKPGQAPRLLIYDASIRATGIPARFSGSGSGTHFTLTINSLEPEDFAVYYCQQRNNWPPLTFGGGTKVEIK
notes: human IgG; also called 6B4-biotin
B6: 4H9 (antibody, V domains shown)
VH: AVQLVESGGGLVRPGGSLRLSCAASGFTFSSHEMHWVRQAPGKGLEWLSYIDFTGSIIYYADSVRGRFTISRDNTKKSLFLQMNSLRDEDTALYYCARDGGRWGTSWYYFDYWGQGVLVTVSS
VL: QSVLTQPPSVSGAPGQRVTITCTGSSSNFGAGYDGHWYQQLPGTAPKLLIYGSNRPSGVPDRFSGSKSGTSVSLAITGLQADDEADYYCQSYDSSLSAWVFGGGTKLTVL
notes: human IgG; also called 4H9-biotin; 4H9.6

Legend:
[1] = molecular target: T1, hCMV gH + gL + UL128 + UL130 + UL131A (5-member complex; HEK293T co-transfectant) (hCMV, UniProt P12824 24-743; P16832 31-278; P16837 1-171; P16772 1-214); assay: cell competition; competitor 2C12-biotin
T1 construct: whole, on cells; in the functional rows it stands for the complex on virions or transduced cells of the strain or isolate named in the readout; also called gH/gL/UL128-131A complex; pentameric complex

[2] = molecular target: T1, hCMV gH + gL + UL128 + UL130 + UL131A …; assay: cell competition; competitor 9I6-biotin
[3] = molecular target: T1, hCMV gH + gL + UL128 + UL130 + UL131A …; assay: cell competition; competitor 4N10-biotin
[4] = molecular target: T1, hCMV gH + gL + UL128 + UL130 + UL131A …; assay: cell competition; competitor 2F4-biotin
[5] = molecular target: T1, hCMV gH + gL + UL128 + UL130 + UL131A …; assay: cell competition; competitor 8J16-biotin
[6] = molecular target: T2, hCMV UL128 + UL130 + UL131A (HEK293T co-transfectant) (hCMV, UniProt P16837 1-171; P16772 1-214); assay: cell-based or functional assay
[7] = molecular target: T1, hCMV gH + gL + UL128 + UL130 + UL131A …; assay: cell competition; competitor 5A2-biotin
[8] = molecular target: T1, hCMV gH + gL + UL128 + UL130 + UL131A …; assay: cell competition; competitor 4I22-biotin
[9] = molecular target: T1, hCMV gH + gL + UL128 + UL130 + UL131A …; assay: cell competition; competitor 8C15-biotin
[10] = molecular target: T2, hCMV UL128 + UL130 + UL131A (HEK293T …); assay: cell-based or functional assay; remark: listed apart in the source
[11] = molecular target: T1, hCMV gH + gL + UL128 + UL130 + UL131A …; assay: cell competition; competitor 10F7-biotin
[12] = molecular target: T1, hCMV gH + gL + UL128 + UL130 + UL131A …; assay: cell competition; competitor 6G4-biotin
[13] = molecular target: T1, hCMV gH + gL + UL128 + UL130 + UL131A …; assay: cell competition; competitor 15D8-biotin
[14] = molecular target: T1, hCMV gH + gL + UL128 + UL130 + UL131A …; assay: cell competition; competitor 1F11-biotin
[15] = molecular target: T1, hCMV gH + gL + UL128 + UL130 + UL131A …; assay: cell competition; competitor 8I21-biotin
[16] = molecular target: T3, hCMV glycoprotein B (gB; HEK293T transfectant) (hCMV, UniProt P06473 32-906); assay: cell competition; competitor 2B11-biotin
T3 construct: whole, on cells; in the functional rows it stands for gB on virions or transduced cells of the strain or isolate named in the readout

[17] = molecular target: T3, hCMV glycoprotein B (gB; HEK293T …); assay: cell-based or functional assay
[18] = molecular target: T3, hCMV glycoprotein B (gB; HEK293T …); assay: cell competition; competitor 10C6-biotin
[19] = molecular target: T3, hCMV glycoprotein B (gB; HEK293T …); assay: cell-based or functional assay; remark: listed apart in the source
[20] = molecular target: T3, hCMV glycoprotein B (gB; HEK293T …); assay: cell competition; competitor 7H3-biotin
[21] = molecular target: T3, hCMV glycoprotein B (gB; HEK293T …); assay: cell competition; competitor 5F1-biotin
[22] = molecular target: T3, hCMV glycoprotein B (gB; HEK293T …); assay: cell-based or functional assay; remark: listed apart in the source
[23] = molecular target: T3, hCMV glycoprotein B (gB; HEK293T …); assay: cell competition; competitor 6B4-biotin
[24] = molecular target: T3, hCMV glycoprotein B (gB; HEK293T …); assay: cell competition; competitor 4H9-biotin

T2 sequence (P16837 whole entry, chain 1 of 2): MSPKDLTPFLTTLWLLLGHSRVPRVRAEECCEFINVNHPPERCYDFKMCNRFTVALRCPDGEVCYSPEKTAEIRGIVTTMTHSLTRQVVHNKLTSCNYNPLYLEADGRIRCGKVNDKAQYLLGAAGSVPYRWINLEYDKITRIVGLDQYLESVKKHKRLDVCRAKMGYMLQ
T2 sequence (P16772 whole entry, chain 2 of 2): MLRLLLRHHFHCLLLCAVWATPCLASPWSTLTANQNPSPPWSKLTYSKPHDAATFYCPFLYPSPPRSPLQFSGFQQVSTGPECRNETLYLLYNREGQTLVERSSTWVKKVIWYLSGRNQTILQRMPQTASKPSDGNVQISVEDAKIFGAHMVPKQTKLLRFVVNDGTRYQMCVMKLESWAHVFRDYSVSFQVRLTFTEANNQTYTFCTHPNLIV
T3 sequence (P06473 32-906 limits assumed): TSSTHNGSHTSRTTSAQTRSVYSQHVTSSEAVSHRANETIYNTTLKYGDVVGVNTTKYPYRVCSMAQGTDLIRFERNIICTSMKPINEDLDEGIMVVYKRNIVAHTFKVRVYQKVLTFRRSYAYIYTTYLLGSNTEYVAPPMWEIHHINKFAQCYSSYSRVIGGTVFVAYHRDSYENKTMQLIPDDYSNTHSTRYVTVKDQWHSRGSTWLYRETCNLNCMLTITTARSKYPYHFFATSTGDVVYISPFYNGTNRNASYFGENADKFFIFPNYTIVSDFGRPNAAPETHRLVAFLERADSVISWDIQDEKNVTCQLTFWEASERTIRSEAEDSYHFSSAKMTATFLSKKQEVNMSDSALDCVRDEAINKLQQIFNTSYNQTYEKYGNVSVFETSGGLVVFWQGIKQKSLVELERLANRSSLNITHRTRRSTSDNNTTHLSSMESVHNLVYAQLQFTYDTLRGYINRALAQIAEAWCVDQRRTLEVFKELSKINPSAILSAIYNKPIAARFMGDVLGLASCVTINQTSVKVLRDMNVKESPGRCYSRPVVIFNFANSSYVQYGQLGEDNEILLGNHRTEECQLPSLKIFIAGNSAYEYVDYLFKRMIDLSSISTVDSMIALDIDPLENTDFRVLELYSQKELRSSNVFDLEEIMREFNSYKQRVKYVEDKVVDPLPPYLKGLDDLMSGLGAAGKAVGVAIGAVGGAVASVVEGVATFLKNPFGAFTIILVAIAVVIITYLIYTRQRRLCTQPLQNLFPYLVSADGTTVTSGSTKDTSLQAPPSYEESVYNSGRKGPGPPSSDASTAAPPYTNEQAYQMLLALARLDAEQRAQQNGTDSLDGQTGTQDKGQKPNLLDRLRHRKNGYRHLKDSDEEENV

| Binder | Inhibition of binding (%) [16] [%] | 50% neutralization VR1814, BM-MSC [17] [µg/mL] | 50% neutralization VR1814, Mo-DC [17] [µg/mL] | Inhibition of binding (%) [18] [%] | 90% neutralization VR1814, ARPE [19] [µg/mL] | 90% neutralization VR1814, MRC-9 [19] [µg/mL] | Inhibition of binding (%) [20] [%] | Inhibition of binding (%) [21] [%] | 50% neutralization VR1814, ARPE [22] [µg/mL] | 50% neutralization VR1814, MRC-9 [22] [µg/mL] | Inhibition of binding (%) [23] [%] | Inhibition of binding (%) [24] [%] | also measured |
| --- | --- | --- | --- | --- | --- | --- | --- | --- | --- | --- | --- | --- | --- |
| B1 | – | – | – | – | – | – | – | – | – | – | – | – | Inhibition of binding (%) [1]: 100%; Inhibition of binding (%) [2]: 100%; Inhibition of binding (%) [3]: 0%; Inhibition of binding (%) [4]: 0%; Inhibition of binding (%) [5]: 100%; 90% neutralization VR1814, ARPE [6]: 0.006 µg/mL; 90% neutralization VR1814, MRC-9 [6]: > 10 µg/mL; Inhibition of binding (%) [7]: 0%; Inhibition of binding (%) [8]: 0%; Inhibition of binding (%) [9]: 100%; 50% neutralization VR1814, ARPE [10]: < 0.01 µg/mL; 50% neutralization VR1814, MRC-9 [10]: ≤ 2 µg/mL; Inhibition of binding (%) [11]: 0%; Inhibition of binding (%) [12]: 100%; Inhibition of binding (%) [13]: 0%; Inhibition of binding (%) [14]: 0%; Inhibition of binding (%) [15]: 0% |
| B2 | 100 | 0.3 | 0.05 | 100 | 0.1 | 0.5 | 0 | 100 | ≤ 2 | ≤ 2 | 0 | 100 | – |
| B3 | 100 | 0.3 | 0.02 | 100 | 0.2 | 0.75 | 0 | 100 | ≤ 2 | ≤ 2 | 0 | 100 | – |
| B4 | 100 | – | – | 100 | 0.2 | 0.75 | 0 | 100 | – | – | 0 | 100 | – |
| B5 | 0 | 2 | 0.11 | 0 | 0.15 | 1 | 0 | 0 | ≤ 2 | ≤ 2 | 100 | 0 | – |
| B6 | 100 | – | – | 100 | 0.4 | 10 | 0 | 100 | ≤ 2 | ≤ 2 | 0 | 100 | – |
